Measured values published in patent US10793871B2, “Nucleic acid molecule encoding glei protein variant with increased phytic acid sensitivity and use thereof” (University-Industry Foundation, Yonsei University, priority 2015, dated 2020).

B1: MBP-Gle1C: MBP fusion protein of the carboxyl-terminal domain of Gle1 (amino acid residues 244-611), wild type (protein)
chain: QEKARAEAQMLAKIRAEEEKKEVERKAAREVAEKEVADRKAAEQKLAEQKAVIESVTGSSATSNAQAGGNSIRAAESALILENHRLKKLEELETTNQSLKSRSNENFSSFEKHIGRVIRQISGTKDSVSGKINDIVKIFKDPRCPVSISIAAFAKKMVTTKEKPNPFACSYVIVYINSQFPQVMDILLAEFHKACIYTVPKHIVNSQSAWDSDAYERLDSIMRLYGALVQTDIRVGNATNVHGIEHGWAWLARFLNKIPANRATATALNSFLQTAGFGLHQRYKSQFLKVVNVVREHFLQKLRAKKDTSDLLVIIAEITAYLDDRMYLKEPEGRAMKTTSTLSSELTAELNQPNYNQNYQRNDYRNYY

Assays:
LOS4 ATPase [1] = test: Steady-state ATPase assay of LOS4-His; type: biochemical, Arabidopsis thaliana
Protocol: (§1) A steady-state ATPase assay was performed as described by Alcázar-Román et al. (Inositol hexakisphosphate and Gle1 activate the DEAD-box protein Dbp5 for nuclear mRNA export. Nat. Cell Biol. 8: 711-716, 2006) with slight modifications. The ATPase assay was performed with a LOS4-His protein in a 96-well plate using a buffer containing 20 mM HEPES (pH 7.5), 150 mM NaCl, 3 mM MgCl2, 1 mM DTT, 2 mM ATP, 6 mM phosphoenolpyruvate, 1.2 mM NADH, 1 mg/ml BSA and 2% (v/v) pyruvate kinase/lactate dihydrogenase (Sigma-Aldrich) in a total volume of 100 μl. Polyadenylic acid was added at 50 μg/ml or different concentrations as described above. Absorbance at 340 nm was measured using a VersaMax absorbance microplate reader (Molecular Devices), and the data were analyzed using SoftMax Pro software (Molecular Devices).
(§2) Gle1 and Gle1C (aa residues 244-611) were cloned into a pMAL C2X vector (New England Biolabs) for MBP fusion, LOS4 was cloned into a pET-29a vector for His fusion. MBP-Gle1 and MBP-Gle1C proteins were expressed in a BL21 (DE3) strain, and LOS4-His proteins were expressed in a Rosseta (DE3) strain of Escherichia coli. Cells were grown at 37° C. to an A600 of 0.4, shifted to 16° C., and induced by 0.25 mM IPTG for 16 hours. The MBP- and His-fusion proteins were purified following the manufacturer's introductions using MBP Excellose (Bioprogen) and His60 Ni Superflow™ resin (Clontech), respectively.

Dbp5 ATPase = biological target: T1, Dbp5 ATPase (Saccharomyces cerevisiae, UniProt P20449+Q12315); conditions: yeast; InsP6 100 nM added to Gle1 and RNA; cited from earlier work
T1 sequence (P20449 1-482): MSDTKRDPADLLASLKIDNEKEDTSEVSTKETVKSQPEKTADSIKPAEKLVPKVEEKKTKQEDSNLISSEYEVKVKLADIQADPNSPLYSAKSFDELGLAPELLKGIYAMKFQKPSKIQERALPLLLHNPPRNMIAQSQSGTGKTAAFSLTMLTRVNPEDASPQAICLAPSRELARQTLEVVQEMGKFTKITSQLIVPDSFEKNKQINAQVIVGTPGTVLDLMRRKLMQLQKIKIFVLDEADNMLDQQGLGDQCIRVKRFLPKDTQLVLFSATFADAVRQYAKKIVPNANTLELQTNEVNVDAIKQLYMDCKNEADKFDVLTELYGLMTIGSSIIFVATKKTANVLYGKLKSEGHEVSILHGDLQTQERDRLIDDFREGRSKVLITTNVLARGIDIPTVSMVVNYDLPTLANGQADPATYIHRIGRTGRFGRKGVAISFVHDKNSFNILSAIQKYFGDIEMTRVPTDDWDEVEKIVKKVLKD
T1 sequence (Q12315 1-538): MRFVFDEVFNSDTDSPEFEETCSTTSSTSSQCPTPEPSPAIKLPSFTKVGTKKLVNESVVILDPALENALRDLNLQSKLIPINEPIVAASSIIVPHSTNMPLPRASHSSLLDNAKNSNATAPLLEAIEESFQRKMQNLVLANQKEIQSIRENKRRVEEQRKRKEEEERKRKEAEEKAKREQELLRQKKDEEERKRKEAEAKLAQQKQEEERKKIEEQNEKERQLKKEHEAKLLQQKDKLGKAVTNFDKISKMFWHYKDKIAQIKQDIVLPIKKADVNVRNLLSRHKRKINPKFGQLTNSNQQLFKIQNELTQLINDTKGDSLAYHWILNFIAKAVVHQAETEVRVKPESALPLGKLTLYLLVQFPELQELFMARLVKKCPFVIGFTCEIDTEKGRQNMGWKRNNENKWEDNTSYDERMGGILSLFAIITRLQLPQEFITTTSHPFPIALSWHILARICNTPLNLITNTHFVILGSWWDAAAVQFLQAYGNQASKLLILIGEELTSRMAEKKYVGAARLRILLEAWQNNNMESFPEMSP

LOS4 ATPase [2] = biological target: T2, LOS4 ATPase (Arabidopsis thaliana, UniProt Q0WPZ7); test: Steady-state ATPase assay of LOS4-His; type: biochemical; conditions: MBP-Gle1C alone (2 μM), without LOS4
T2 construct: LOS4 was cloned into a pET-29a vector for His fusion; made in house; host or cells: Escherichia coli Rosetta (DE3) for LOS4-His; BL21 (DE3) for MBP-Gle1C
T2 sequence (Q0WPZ7 244-611): B1 chain
Protocol: as §1, §2

Row | Molecule | additional increase in LOS4 activity by InsP6 (LOS4 ATPase [1]; InsP6 10 μM added to Gle1 and RNA (FIG. 5B)) [%] | increase of LOS4 ATPase activity (LOS4 ATPase [1]; LOS4-His 1 μM, ATP 2 mM, RNA 50 μg/ml, MBP-Gle1 2 μM plus 10 μM InsP6) [fold] | additional increase in Dbp5 ATPase activity (Dbp5 ATPase) | LOS4-His ATPase activity on addition of increasing amounts of protein (LOS4 ATPase [1]; 0-4 μM MBP-Gle1C, 1 μM LOS4-His, 2 mM ATP, RNA (FIG. 4C)) | stimulation of LOS4 ATPase activity in the absence of InsP6 (LOS4 ATPase [1]; 1 μM LOS4-His, 2 mM ATP, RNA, 2 μM MBP-Gle1C or variant, no InsP6) | increase in the overall catalytic rate of LOS4 (LOS4 ATPase [1]; LOS4-His 1 μM with MBP-Gle1C 2 μM vs LOS4-His alone) | apparent kcat of LOS4-His (LOS4 ATPase [1]; LOS4-His (1 μM) with MBP-Gle1C (2 μM), 0-2 mM ATP) [s⁻¹] | maximal increase in LOS4 ATPase activity with RNA (LOS4 ATPase [1]; LOS4-His:MBP-Gle1C 1:2, addition of RNA (polyadenylic acid) at different concentrations) [fold] | InsP6 concentration at which LOS4-stimulating activity increases above basal (LOS4 ATPase [1]; with RNA, InsP6 0-100 μM) [µM] | InsP6 concentration giving maximum LOS4-stimulating activity (LOS4 ATPase [1]; with RNA, InsP6 0-100 μM) [µM] | InsP6 concentrations at which only basal LOS4-stimulating activity is maintained (LOS4 ATPase [1]; with RNA, InsP6 0-100 μM) [nM] | intrinsic ATPase activity (LOS4 ATPase [2])
1 | O=P(O)(O)O[C@H]1[C@H](OP(=O)(O)O)[C@@H](OP(=O)(O)O)[C@H](OP(=O)(O)O)[C@@H](OP(=O)(O)O)[C@H]1OP(=O)(O)O [InsP6, Myo-inositol-1,2,3,4,5,6-hexakisphosphate, reference compound] | 30 | > 4 | 3- to 4 fold |  |  |  |  |  |  |  |  | 
2 | B1 |  |  |  | activated LOS4-His ATPase activity in a concentration-dependent manner | activated LOS4 ATPase activity to similar degrees | approximately two-fold | 0.565 | ~3 | 1 | 10 | 1 to 100 | did not show intrinsic ATPase activity
